For assay [1], the target named is SP6 tailspike protein gp46 (bacteriophage SP6). Nature of the assay: cryo-EM structure.
The target in assay [2] is SP6 tailspike protein gp47 (bacteriophage SP6). Nature of the assay: cryo-EM structure.

The stoichiometry N is a count of units in the complex or per binding partner.

On to “SP6 tailspike protein gp46 (natural protein)”, for which, in assay [1], the stoichiometry N turned out to be 3.

“SP6 tailspike protein gp47 (natural protein)” showed a stoichiometry N in assay [2] of 3.

Values taken from PMC5503682.
